One molecule from paper PMC9142731 (Virology Journal, 2022) can be followed below.

Holding throughout (conditions): both partners purified
The target of assay [1] is T1, SARS-CoV-2 nucleocapsid protein (WT), recombinant (Severe acute respiratory syndrome …, UniProt P0DTC9).
T1 construct: also called SARS-CoV-2 NP; WT NP; source: bought: Sino Biological; not shown: His tag, C-terminal, kept
Briefly: SPR.

Assay [2] addresses T2, SARS-CoV nucleocapsid protein, recombinant (Severe acute respiratory syndrome …, UniProt P59595).
T2 construct: also called SARS-CoV NP; source: bought: Sino Biological

For assay [3], the target named is T3, 229E nucleocapsid protein, recombinant (Human coronavirus 229E (HCoV-229E)., UniProt P15130).
T3 construct: also called 229E NP; source: bought: Sino Biological

Assay [4] deals with T4, MERS-CoV nucleocapsid protein, recombinant (MERS-CoV, strain , UniProt K9N4V7).
T4 construct: also called MERS-CoV NP; source: bought: Sino Biological
The experiment in a line: ELISA.

For assay [5], the target named is T5, HKU1 nucleocapsid protein, recombinant (Human coronavirus HKU1 (isolate N1) …, UniProt Q5MQC6).
T5 construct: also called HKU1 NP; source: bought: Sino Biological
The experiment in a line: ELISA.

Assay [6] deals with T6, OC43 nucleocapsid protein, recombinant (Human coronavirus OC43 (HCoV-OC43)., UniProt P33469).
T6 construct: also called OC43 NP; source: bought: Sino Biological
Briefly: ELISA.

The target of assay [7] is T7, NL63 nucleocapsid protein, recombinant (Human coronavirus NL63 (HCoV-NL63)., UniProt Q6Q1R8).
T7 construct: also called NL63 NP; source: bought: Sino Biological
The experiment in a line: ELISA.

B1: P301-F7 (antibody, V domains shown)
VH: QLQLQESGPGLVKPSETLSLTCTVSGGSISSTSYYWGWIRQPPGKGLEWIGSIYYSGSTYYNPSLKSRVTISVDTSKNQFSLKLSSVTAADTAVYYCARFSLYCSSTSCYENWFDPWGQGTLVTVSS
VL: QSVLTQPPSVSAAPGQKVTISCSGSSSNIGNNYVSWYQQLPGTAPKLLIYDNNKRPSGIPDRFSGSKSGTSATLGITGLQTGDEADYYCGTWDSSLSAGQVVFGGGTKLTVL
notes: source: 293 F cells, transient transfection, purified (Protein A beads)
As to B1, the dissociation constant (Kd) in assay [1] was 13.3 nM; in assay [2], 14.9 nM. Besides, the binding result in assay [3], in assay [4], in assay [5], in assay [6] and in assay [7] was “no binding” each time.
